Molecular target: the molecule itself
Experiment: SEC-MALS; Superdex 200 Increase 10/300, 0.8 ml/min; 65 µl of ~3 mg/ml or 100 μM per monomer loaded; 20 mM Tris-HCl pH 7.5, 150 mM NaCl, 5 mM βME, 3 mM NaN3; samples before preparative SEC; self-association, monomers to dimer (small tetramer peak for six isoforms)

B1: Arabidopsis thaliana 14-3-3 omicron (natural protein, UniProt Q9S9Z8 1-252, looked up)
chain: MENERAKQVYLAKLNEQAERYDEMVEAMKKVAALDVELTIEERNLLSVGYKNVIGARRASWRILSSIEQKEESKGNEQNAKRIKDYRTKVEEELSKICYDILAVIDKHLVPFATSGESTVFYYKMKGDYFRYLAEFKSGADREEAADLSLKAYEAATSSASTELSTTHPIRLGLALNFSVFYYEILNSPERACHLAKRAFDEAIAELDSLNEDSYKDSTLIMQLLRDNLTLWTSDLEEGGEQSKGHNQQDEN
notes: 14-3-3 omicron, Arabidopsis thaliana, epsilon group; construct provided by Prof; Robert J. Ferl; source: E. coli C41(DE3), purified (IMAC, thrombin cleavage of the His6-tag, subtractive IMAC, preparative SEC; aliquots before preparative SEC for SEC-MALS)
stoichiometry N: 2
